Results from paper PMC6083090, “CNBP Homologues Gis2 and Znf9 Interact with a Putative G-Quadruplex-Forming 3′ Untranslated Region, Altering Polysome Association and Stress Tolerance in Cryptococcus neoformans”.

T1: rGis2 (Cryptococcus neoformans (H99), UniProt J9VQ17 1-201)
T1 sequence: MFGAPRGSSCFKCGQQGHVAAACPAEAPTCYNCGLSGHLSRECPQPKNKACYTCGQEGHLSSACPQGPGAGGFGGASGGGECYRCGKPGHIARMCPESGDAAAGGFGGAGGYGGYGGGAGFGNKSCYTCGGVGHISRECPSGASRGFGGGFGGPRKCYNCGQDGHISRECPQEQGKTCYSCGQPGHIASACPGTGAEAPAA

T2: rZnf9 (Cryptococcus neoformans (H99), UniProt J9VQH8 1-184)
T2 sequence: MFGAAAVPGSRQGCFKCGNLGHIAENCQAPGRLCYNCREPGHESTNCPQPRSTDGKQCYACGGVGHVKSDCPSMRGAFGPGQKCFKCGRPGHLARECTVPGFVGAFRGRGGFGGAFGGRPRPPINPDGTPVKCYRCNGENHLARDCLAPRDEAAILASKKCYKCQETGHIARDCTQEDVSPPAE


Key:
[1] = target: T1, rGis2; test: UV-cross-linked EMSA; 5 mM Mg2+; EMSA: 15 mM HEPES pH 7.4, 40 mM KCl, 5 mM MgCl2, 5% glycerol, 0.5 pmol probe in 20 µl, room temperature 20 min, then UV cross-link on ice 10 min; details: protein: recombinant; tags: His (pET14b, Ni-NTA); label: 5'-TYE705; putative intramolecular G4
[2] = target: T2, rZnf9; test: as above; details: protein: recombinant; tags: His (pET14b, Ni-NTA); label: 5'-TYE705; putative intramolecular G4
[3] = target: T1, rGis2; test: competition; 25x and 50x competitor, UV-cross-linked EMSA; EMSA: 15 mM HEPES pH 7.4, 40 mM KCl, 5 mM MgCl2, 5% glycerol, 0.5 pmol probe in 20 µl, room temperature 20 min, then UV cross-link on ice 10 min; details: protein: recombinant; tags: His (pET14b, Ni-NTA); label: none; no G4
[4] = target: T2, rZnf9; test: as above; details: protein: recombinant; tags: His (pET14b, Ni-NTA); label: none; no G4

Binder	binding result [1]	binding result [2]	binding result [3]	binding result [4]
UGCAGUGGAGUUGGAGUGGGGAUGGGAUGUUGGGCAGUGGGCCCGUGGAU (structured_RNA) [TYE705-RPL2-3'UTR]	binds	binds		
UGCAGUGGAGUUGGAGUGAAACCAAACCGUUGGGCAGUGGGCCCGUGGAU (ssRNA) [mt competitor (cons mt)]			no binding	no binding
